Measurements taken from US8802630B2, “Method of treating brain injury” (Buddhist Tzu Chi General Hospital, priority 2011, dated 2014).
Where no end group is shown, it is not given here.

Details: rat, in vivo

## fluorescence-labeled UCN: UCN labeled with the Alexa Fluor 488 dye using Microscale Protein Labeling Kit (DNPSLSIDLTFHLLRTLLELARTQSQRERAEQNRIIFDSV; ends and bridges not checked; also: Alexa Fluor 488 label, site not given here; UniProt P55089 83-122, looked up)
  penetration from lateral ventricle into striatal parenchyma: co-localized in cell nuclei of the striatum on the ipsilateral
